Sequences and labels used below:
B1: unnamed (protein)
chain 1: EVQLVQSGAEVKKPGESLRISCKGSGYSFSTYWISWVRQMPGKGLEWMGKIYPGDSYTNYSPSFQGQVTISADKSISTAYLQWSSLKASDTAMYYCSRGSGIFDYWGQGTLVTVSS
chain 2: SYELTQPPSVSVSPGQTASITCSGDNIGDQYAHWYQQKPGQSPVLVIYQDKNRPSGIPERFSGSNSGNTATLTISGTQAMDEADYYCATYTGFGSLAVFGGGTKLTVL
B2: unnamed (protein)
chain 1: B1 chain 1 with S97A, S100V
chain 2: B1 chain 2
B3: unnamed (protein)
chain 1: B1 chain 1 with S97T, S100V
chain 2: B1 chain 2
B4: unnamed (protein)
chain 1: B1 chain 1 with S97A, S100T, I102L
chain 2: B1 chain 2
B5: unnamed (protein)
chain 1: B1 chain 1 with S97T, S100Y, I102V
chain 2: B1 chain 2
B6: unnamed (protein)
chain 1: B1 chain 1 with S97A, S100I, I102L
chain 2: B1 chain 2
B7: unnamed (protein)
chain 1: B1 chain 1 with S97A, S100I
chain 2: B1 chain 2
B8: unnamed (protein)
chain 1: B1 chain 1 with S97T, I102L
chain 2: B1 chain 2
B9: unnamed (protein)
chain 1: B1 chain 1 with S97A, S100W, I102V
chain 2: B1 chain 2
B10: unnamed (protein)
chain 1: B1 chain 1 with S97A, S100V, I102L
chain 2: B1 chain 2
B11: unnamed (protein)
chain 1: B1 chain 1 with S100Y, I102V
chain 2: B1 chain 2
B12: unnamed (protein)
chain 1: B1 chain 1 with S97T, S100V, I102L
chain 2: B1 chain 2
B13: unnamed (protein)
chain 1: QVQLVQSGAEVKKPGASVKVSCKASGYTFTSNWIHWVKQAPGQGLEWMGEIYPGNSNTNYNENFRNKVTMTVDTSISTAYMELSRLRSDDTAVYYCTRVSYGEPYFDYWGQGTLVTVSS
chain 2: QIVLTQSPGTLSLSPGERATMTCTASSSVSSSYFHWYQQKPGQAPRLWIYRTSRLASGVPDRFSGSGSGTDFTLTISRLEPEDAATYYCHQFHRSPLTFGAGTKLEIK
B14: unnamed (protein)
chain 1: B13 chain 1 with N32S, S100Q
chain 2: B13 chain 2
B15: unnamed (protein)
chain 1: B13 chain 1 with T28S, N32S, S100R
chain 2: B13 chain 2
B16: unnamed (protein)
chain 1: B13 chain 1 with N32A, S100R
chain 2: B13 chain 2
B17: unnamed (protein)
chain 1: B13 chain 1 with S100R
chain 2: B13 chain 2
B18: unnamed (protein)
chain 1: B13 chain 1 with N32S, S100R, Y101F
chain 2: B13 chain 2
B19: unnamed (protein)
chain 1: B13 chain 1 with S100R, E103Y
chain 2: B13 chain 2
B20: unnamed (protein)
chain 1: B13 chain 1 with T28S, N32S, S100Q
chain 2: B13 chain 2

Changes are numbered by the printed parent chain.

The first test has as its target TNFRSF9, Q07011. Description: Kd (SPR).
Broadly, the Kd is the constant that tells how readily two partners part at equilibrium. Read a low Kd as higher affinity. The molecule B1 registered a Kd of 295 nM. Regarding B2, the Kd came out at 158 nM.

The molecule B3 displayed an equilibrium dissociation constant (Kd) of 92.3 nM. B4 yielded an equilibrium dissociation constant (Kd) of 95.6 nM. The molecule B5 returned an equilibrium dissociation constant (Kd) of 96.2 nM. B6 returned a Kd of 175 nM. B7 came in with an equilibrium dissociation constant (Kd) of 128 nM.

In turn, B8 returned a Kd of 225 nM. In turn, B9 showed a Kd of 122 nM.

B10 had a Kd of 153 nM. Same read-out and setting: for B11 the value was 130 nM; for B12, 141 nM.

A further test deals with IL36R. In words: Kd (SPR).
The molecule B13 returned a Kd of 11 nM.

Molecule B14 showed a dissociation constant (Kd) of 2.76 nM. In the case of B15, the dissociation constant Kd amounted to 0.933 nM. In the case of B16, the Kd was found to be 0.757 nM. Molecule B17 had an equilibrium dissociation constant (Kd) of 14.6 nM.

With B18, the Kd was 1.03 nM. B19 had a Kd of 1.35 nM. On the same count and under the same terms, for B20 the value was 1.16 nM.

Source of the values: the FLAb antibody collection (doi:10.1101/2023.12.08.570889).
